Data from publication doi:10.1101/2022.01.04.474980.

Molecular target: FRQ WT peptide … (FFD and the double arginines) (N. crassa)
Experiment: peptide or protein array

Question: “FREQUENCY-Interacting RNA Helicase, FRHΔ100 (E. coli expressed, 6x His-tag) (from UniProt Q1K502 100-1106) (domain or fragment)” was tested. Which normalized microarray intensity did it give?
Answer: 64
